Test results reported in US11390653B2, “Amino acid-specific binder and selectively identifying an amino acid” (priority 2018, dated 2022).

Experiments:
Type in all cases: binding
F1G2 peptide [1] = assay: yeast/peptide colorimetric pull-down assay; details: yeast-displayed protein
Description: (§1) Incubation and wash steps were repeated.

Ile NAA peptide = target: T1, Ile NAA peptide (Agrobacterium fabrum, UniProt Q8UD95); assay: yeast/peptide colorimetric pull-down assay
T1 construct: factor Xa cleavage site (N); expressed in transfected cells; host or cells: Saccharomyces cerevisiae EBY100, pCTCON2
Description: as §1

Leu NAA peptide = assay: yeast/peptide colorimetric pull-down assay; details: yeast-displayed protein
Description: as §1

Val NAA peptide = target: T2, Val NAA peptide (Agrobacterium fabrum, UniProt Q8UD95); assay: yeast/peptide colorimetric pull-down assay
T2 construct: factor Xa cleavage site (N); expressed in transfected cells; host or cells: Saccharomyces cerevisiae EBY100, pCTCON2
Description: as §1

Ala NAA peptide = target: T3, Ala NAA peptide (Agrobacterium fabrum, UniProt Q8UD95); assay: yeast/peptide colorimetric pull-down assay
T3 construct: factor Xa cleavage site (N); expressed in transfected cells; host or cells: Saccharomyces cerevisiae EBY100, pCTCON2
Description: as §1

Lys NAA peptide = target: T4, Lys NAA peptide (Agrobacterium fabrum, UniProt Q8UD95); assay: yeast/peptide colorimetric pull-down assay; details: high concentrations used in the assay
T4 construct: factor Xa cleavage site (N); expressed in transfected cells; host or cells: Saccharomyces cerevisiae EBY100, pCTCON2
Description: as §1

Met NAA peptide = target: T5, Met NAA peptide (Agrobacterium fabrum, UniProt Q8UD95); assay: yeast/peptide colorimetric pull-down assay; details: high concentrations used in the assay
T5 construct: factor Xa cleavage site (N); expressed in transfected cells; host or cells: Saccharomyces cerevisiae EBY100, pCTCON2
Description: as §1

His NAA peptide [2] = target: T6, His NAA peptide (Agrobacterium fabrum, UniProt Q8UD95); assay: yeast/peptide colorimetric pull-down assay; design: factor Xa cleavage site (N); expressed in transfected cells; host or cells: Saccharomyces cerevisiae EBY100, pCTCON2; details: high concentrations used in the assay
Description: as §1

Arg NAA peptide [3] = target: T7, Arg NAA peptide (Agrobacterium fabrum, UniProt Q8UD95); assay: yeast/peptide colorimetric pull-down assay; design: factor Xa cleavage site (N); expressed in transfected cells; host or cells: Saccharomyces cerevisiae EBY100, pCTCON2; details: high concentrations used in the assay
Description: as §1

Y1G2 peptide = assay: SPR, peptide on streptavidin chip, ClpS2 variant protein in solution; details: for KOFF Tyr: from SPR dissociation curves; for Selectivity for Tyr, Tyr/Phe / Selectivity for Tyr, Tyr/Trp / Selectivity for Tyr, Tyr/Tyr: relative specificity factor, ratio of binding affinities; for Kd: steady state, peptide on surface, 0 to 50 μM protein, read-out: KD Tyr
Description: (§2) With regard to surface plasmon resonance (SPR), SPR data was collected by loading a streptavidin chip with the target biotinylated peptides in each of the four channels, and then flowing the protein over the chip at each concentration for 180 seconds before washing with 50 mM Tris-HCl, pH 8.0, 300 mM NaCl, 1 mM DTT, 5% glycerol buffer for 180 seconds. […] The four channels were used such that the negative control peptide (A1G2) was in channel 1, F1G2 in channel 2, W1G2 in channel 3, and Y1G2 in channel 4. The negative control peptide channel was used as a baseline for subtraction, which accommodates both any non-specific binding and refractive index change. A steady state response at each concentration was plotted and fit to calculate the KD, while the resonance units vs. time was used to calculate a koff for each mutant protein with each peptide.
(§3) Regarding characterization of the ClpS mutant protein binding kinetics, for peptide sequencing via some recently proposed methods reagents can bind peptides affixed to a surface. Two A. tumefaciens ClpS2 protein variants (V2, described above, and V1) were expressed and purified from E. coli. […] The binding properties of each variant were analyzed using surface plasmon resonance (SPR).

F1G2 peptide [4] = assay: as above; details: for specificity between N-terminal Phe and Trp, in words: from SPR binding data; for KOFF Phe: from SPR dissociation curves; for Selectivity for Phe, Phe/Phe / Selectivity for Phe, Phe/Trp / Selectivity for Phe, Phe/Tyr: relative specificity factor, ratio of binding affinities; for Kd: steady state, peptide on surface, 0 to 50 μM protein, read-out: KD Phe
Description: as §2, §3

[5] = target: T8, full panel of 20 peptides containing different NAAs (Agrobacterium fabrum, UniProt Q8UD95); assay: yeast/peptide colorimetric pull-down assay, full panel
T8 construct: factor Xa cleavage site (N); expressed in transfected cells; host or cells: Saccharomyces cerevisiae EBY100, pCTCON2
Description: as §1

W1G2 peptide = details: for KOFF Trp: from SPR dissociation curves; for Selectivity for Trp, Trp/Phe / Selectivity for Trp, Trp/Trp / Selectivity for Trp, Trp/Tyr: relative specificity factor, ratio of binding affinities; for Kd: steady state, peptide on surface, 0 to 50 μM protein, read-out: KD Trp
Description: as §2, §3

His NAA peptide [6] = target: T6, His NAA peptide; assay: flow cytometry of yeast displaying ClpS proteins; design: factor Xa cleavage site (N); expressed in transfected cells
Description: (§4) After two rounds of MACs selection, the library was sorted by flow cytometry. […] A typical reaction contained 100 μL of cells (containing approximately 10^6 cells), 10 μL of peptide at a concentration between 10 nM to 10 μM, and 25 μL of a master mix containing 2 μL of an anti-myc antibody, 4 μL of the SAPE (streptavidin, R-phycoerythrin conjugate—1 mg/mL) and 19 μL of PBS/BSA for each sample.
(§5) Cells were washed with PBS/BSA and sorted using a FACS Aria cytometer and collected in 1 mL of SD-CAA media. The number of cells that bound the peptide improved with each round and were sorted with sequentially lower concentrations of peptide to increase the stringency of the selection. […]
(§6) With regard to directed evolution of ClpS, random mutagenesis and screening was used to select proteins with higher affinity binding to the target NAA. In subsequent steps, specific residues were determined from initial screens with a targeted mutagenesis step. […] Using FACS, we assessed the affinity of each mutant for the N-terminal amino acid on the target peptide based on which quadrant the fluorescent signal fell into as shown in FIG. 15. […] If there is also a high fluorescence signal along the x-axis (streptavidin-PE) then the peptide is presumably bound to the protein variant, and the signal will appear in Q2. […]

Arg NAA peptide [7] = target: T7, Arg NAA peptide; assay: flow cytometry of yeast displaying ClpS proteins; design: factor Xa cleavage site (N); expressed in transfected cells
Description: as §4, §5, §6

For “A. tumefaciens ClpS2 [Variant V3, A. tumefaciens ClpS2 [Cys34 Ser35 Trp36]]”, the “affinity for F1G2 peptide compared to wild-type” value (F1G2 peptide [1]) was “increased affinity” and the “selectivity towards F1G2 peptide compared to other NAAs” value (F1G2 peptide [1]) was “higher selectivity”.

B1: A. tumefaciens ClpS2 [Pro34 Arg35 Glu36] (protein)
chain: MGHHHHHHENLYFQGSDSPVDLKPKPKVKPKLERPKLYKVMLLNDDYTPREFVTVVLKAVFRMSEDTGRRVMMTAHRFGSAVVVVCERDIAETKAKEATDLGKEAGFPLMFTTEPEE
notes: wild-type Agrobacterium tumefaciens ClpS2, N-End Rule Pathway adaptor protein
With B1 the “binding to Ile” value (Ile NAA peptide) was “does bind”, the “binding to Leu” value (Leu NAA peptide) was “does not bind” and the “binding to Val” value (Val NAA peptide) was “lack of binding”. For the same molecule, the “binding to Ala” value (Ala NAA peptide) was “lack of binding”, the “binding to Lys” value (Lys NAA peptide) was “some binding activity” and the “binding to Met” value (Met NAA peptide) was “some binding activity”. The “binding to His” value (His NAA peptide [2]) was “some binding activity”, the “binding to Arg” value (Arg NAA peptide [3]) was “some binding activity” and the “KOFF Tyr” value (Y1G2 peptide) was 1.16 s⁻¹. The “Selectivity for Tyr, Tyr/Phe” value (Y1G2 peptide) was 4.86, the “Selectivity for Tyr, Tyr/Trp” value (Y1G2 peptide) was 3.43 and the “Selectivity for Tyr, Tyr/Tyr” value (Y1G2 peptide) was 1.0. The Kd (Y1G2 peptide) was 63 ± 4 µM, the “specificity between N-terminal Phe and Trp, in words” value (F1G2 peptide [4]) was “modest specificity for N-terminal Phe” and the “KOFF Phe” value (F1G2 peptide [4]) was 0.93 s⁻¹. For the same molecule, the “Selectivity for Phe, Phe/Phe” value (F1G2 peptide [4]) was 1.0, the “Selectivity for Phe, Phe/Trp” value (F1G2 peptide [4]) was 0.71 and the “Selectivity for Phe, Phe/Tyr” value (F1G2 peptide [4]) was 0.21. The Kd (F1G2 peptide [4]) was 13 ± 0.6 µM, the “binding to the remaining amino acids” value [5] was “non-binding” and the “KOFF Trp” value (W1G2 peptide) was 1.32 s⁻¹. The “Selectivity for Trp, Trp/Phe” value (W1G2 peptide) was 1.42, the “Selectivity for Trp, Trp/Trp” value (W1G2 peptide) was 1.0 and the “Selectivity for Trp, Trp/Tyr” value (W1G2 peptide) was 0.29. For the same molecule, the Kd (W1G2 peptide) was 18.4 ± 0.4 µM, the “binding to His” value (His NAA peptide [6]) was “confirmed” and the “binding to Arg” value (Arg NAA peptide [7]) was “confirmed”.

B2: A. tumefaciens ClpS2 [Pro34 Met35 Ser36] (protein, listed as Escherichia coli)
chain: SDSPVDLKPKPKVKPKLERPKLYKVMLLNDDYTPMSFVTVVLKAVFRMSEDTGRRVMMTAHRFGSAVVVVCERDIAETKAKEATDLGKEAGFPLMFTTEPEE
notes: ClpS2 variant, native residues 34-36 ProArgGlu mutated to ProMetSer
B2 was tested, and the “improvement in affinity for Y1G2 compared to wild-type” value (Y1G2 peptide; SPR) was 5.5 fold, the “KOFF Tyr” value (Y1G2 peptide) was 0.5 s⁻¹ and the “Selectivity for Tyr, Tyr/Phe” value (Y1G2 peptide) was 6.43. The “Selectivity for Tyr, Tyr/Trp” value (Y1G2 peptide) was 0.88, the “Selectivity for Tyr, Tyr/Tyr” value (Y1G2 peptide) was 1.0 and the Kd (Y1G2 peptide) was 11.6 ± 1.2 µM. The “dissociation rate slowed over wild-type, Phe” value (F1G2 peptide [4]; SPR) was 9.4 fold, the “improvement in KD/affinity for Phe peptide compared to wild-type” value (F1G2 peptide [4]; SPR) was 7.2 fold and the “improvement in KD/affinity for Phe peptide compared to wild-type” value (F1G2 peptide [4]; SPR, listed as ProMetSer variant) was 7 fold. The “specificity between N-terminal Phe and Trp, in words” value (F1G2 peptide [4]) was “more specific for N-terminal Trp than for Phe”, the “KOFF Phe” value (F1G2 peptide [4]) was 0.1 s⁻¹ and the “Selectivity for Phe, Phe/Phe” value (F1G2 peptide [4]) was 1.0. For the same molecule, the “Selectivity for Phe, Phe/Trp” value (F1G2 peptide [4]) was 0.14, the “Selectivity for Phe, Phe/Tyr” value (F1G2 peptide [4]) was 0.16 and the Kd (F1G2 peptide [4]) was 1.8 ± 0.4 µM. The “KOFF Trp” value (W1G2 peptide) was 0.76 s⁻¹, the “affinity for N-terminal Trp relative to wild-type, in words” value (W1G2 peptide; in vitro surface binding assays / SPR) was “little change” and the “Selectivity for Trp, Trp/Phe” value (W1G2 peptide) was 7.28. The “Selectivity for Trp, Trp/Trp” value (W1G2 peptide) was 1.0, the “Selectivity for Trp, Trp/Tyr” value (W1G2 peptide) was 1.13 and the Kd (W1G2 peptide) was 13.1 ± 1.3 µM.
